Measurements taken from patent US20110318757A1 (MAB FACTORY, published 2011).
Numbering of substitutions follows the chain as printed.

B1: R764-B7 (HT186-B7 IgG) (antibody, V domains shown)
VH: QMQLVQSGAEVKKPGASVKVSCKASGYTFTGHYMHWVRQAPGQGLEWMGWIDPVTGGTKYAQNFQGWVTMTRDTSIRTAYMELSRLRSDDTAMYYCAREVTGDRGQFDKWGQGTLVTVAS
VL: QSVLTQPPSVSVAPGKTARITCGGNNIGSKSVHWYQQKPGQAPALVIYYGSYRPSGIPERFSGSNYGNTATLTIRRVEAGDEADYYCQVWDSSSDWVFGGGTKLTVLG
notes: Human IgG1, lambda, produced in YB2/0 cells
B2: R764-D11 (HT186-D11 IgG) (antibody, V domains shown)
VH: B1 VH with G8E, V11L, T28S, M81L
VL: B1 VL with Y52N, Y66S, R75S
notes: Human IgG1, lambda, produced in YB2/0 cells; also called R764 HT186-D11
B3: HT186-B7 scFv (scFv)
scFv: QMQLVQSGAEVKKPGASVKVSCKASGYTFTGHYMHWVRQAPGQGLEWMGWIDPVTGGTKYAQNFQGWVTMTRDTSIRTAYMELSRLRSDDTAMYYCAREVTGDRGQFDKWGQGTLVTVASASTKGPSVKLEEGEFSEARVQSVLTQPPSVSVAPGKTARITCGGNNIGSKSVHWYQQKPGQAPALVIYYGSYRPSGIPERFSGSNYGNTATLTIRRVEAGDEADYYCQVWDSSSDWVFGGGTKLTVLGQPKAAPSVTLFPPS
notes: scFv as VH-truncated CH1-linker-VL-truncated CL, made in the E. coli periplasm and purified by its His-tag; not shown: C-terminal His-tag used for purification and detection
B4: HT186-D11 scFv (scFv)
scFv: B3 scFv with G8E, V11L, T28S, M81L, A121S, Y192N, Y206S, R215S, P261S
notes: as for B3
B5: HT186-G2 scFv (scFv)
scFv: RMQLVQSGAEVKKPGASVKLSCKASGYTFAGHYMHWVRQAPGRGLEWMGWIDPVTGGTKYAQNFQGWVTMTRDTSIRTAYMELSRLRSDDTAMYYCAREVTGDRGQFDKWGQGTLVTVASASTKGPSVKLEEGKFLEAHVQSVLTQPPSVSVAPGKTARITCGGNNIGSKSVHWYQQKPGQAPVLVIYYGSDRSSGIPERFSGSNSGNTATLTISRVEAGDEADYYCQVWDSSSDWVFGGGTKLTVLGQPKAAPSVTLFPPS
notes: as for B3
B6: HT200-3A-C1 scFv (scFv)
scFv: QMQLVQSGAEVKKPGASVKVSCKASGYTFTGHYMHWVRQAPGQGLEWMGWIDPVTGGTKYAQNFQGWVTMTRDTSIRTAYMELSRLRSDDTAMYYCAREVTGDRGQFDKWGQGTLVTVASASTKGPSAKLEEGEFSEARVQSVLTQPPSVSMAPGETARITCGGNNIGSKSVHWYQQKPGQAPVLVIYNDSDRPSGIPERFSGSNSGKTATLTISRVEAGDEADYYCQVWDSSIDWVFGGGTKLTVLGQPKAAPSVTLFPPS
notes: as for B3
B7: HT220-M-G8 scFv (scFv)
scFv: B3 scFv with K12M, T28S, Q39H, G57S, R77S, A184V, Y192D, Y206T, T209M, R215S
notes: as for B3
B8: HT220-M-D1 scFv (scFv)
scFv: QMLLVQSGAEAKKPGASVKVSCKASGYTFTGHYMHWVRQAPGQGLEWMGWIDPVTGGTKYAQNFQGWVTMTRDTSIRTAYMELSRLRPDDTAMYYCAREVTGDRGQFDKWGQGTLVTVASASTKGPSVKLEEGEFSEARVQSVLTQPPSVSVVPGKTARIICGGNNIGSKSVHWYQQKPGQAPVLVIYNNSDRPSGIPERFSGSNSGNMATLTISRVEAGDESDYYCQVWDSSSDWVFGGGTRLTILGQSKAAPSVTLFPPS
notes: as for B3

Target: T1, 32-mer MUC1 peptide (human)
T1 construct: also called MUC1 peptide antigen (32mer cys); MUC1 peptide (32 mer cys)
T1 peptide: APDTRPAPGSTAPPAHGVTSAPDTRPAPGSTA
Assay: titration ELISA, MUC1 peptide (32mer Cys) 50 ng/well, IgG diluted 1:3.16 from 100 µg/mL, detection goat anti-human IgG (Fc) HRP, TMB; mean of three plates, BSA value subtracted; A450-A620
Protocol: 3× Nunc Maxisorp plates coated with 50 ng/well MUC1 peptide antigen (32mer cys, sequence: […]) [0227] Control plate was coated with 100 ng/well BSA [0228] Blocking solution: 2% skim milk powder in PBS-T (0.1% Tween), 1 h, RT [0229] IgG samples were diluted to a final concentration of 100 μg/ml with blocking solution [0230] samples were sequentially diluted 1:3.16 [0231] detection: goat anti-human IgG (Fc spec) HRP conjugate (Sigma, 1:39000), 1 h, RT [0232] Development: TMB substrate, reaction stopped with sulfuric acid after 10 minutes. [0233] A450-A620 measured in a Tecan Sunrise Reader [0234] […] Mean value and standard deviation of three plates (MUC1) calculated [0236] BSA value (negative control) subtracted from mean value [0237] Plotting: [0238]

B1 and B2 are the same in “EC50 (read off the curve)” value: roughly 0.1 µg/mL for the first, roughly 0.1 µg/mL for the second.

Target: T1, 32-mer MUC1 peptide
Assay: ELISA, 32-mer MUC1 peptide immobilized in microtitre wells, IgG about 0.03 to 8000 ng/well, A450-A620 (preliminary results according to the legend)
Protocol: (§1) This analysis was done using the ELISA technique wherein the 32-mer MUC1 peptide is immobilized in the wells of a microtitre plate, and wherein the anti-MUC1 antibodies are added later in different concentrations.

B1 and B2 are the same in “EC50 (read off the curve)” value: roughly 10 ng/well for the first, roughly 10 ng/well for the second.

Target: T2, MUC1 peptide (15 aa+cystein, APDTRPAPGSTAPPAC) (human)
T2 construct: If the listing entry has only 15 residues, a C-terminal Cys must be added; Immobilized on the SPR chip; also called synthetic MUC1 peptide
T2 peptide: APDTRPAPGSTAPPAC
Assay: SPR, scFv over immobilized MUC1 peptide, Chip 2 (14 RU)

Going from B3 to B4, the Ka rises from 6.3e+08 M⁻¹ to 1.5e+09 M⁻¹ (2.4-fold).

For B5, the Ka was 6.6e+08 M⁻¹.

B3 and B5 are within 1.5-fold of each other in Kd: 1.6 nM for the first, 1.5 nM for the second.

B3 and B5 are within 1.5-fold of each other in koff: 0.00014 s⁻¹ for the first, 0.00011 s⁻¹ for the second.

B3 and B5 are within 1.5-fold of each other in kon: 90000 M⁻¹ s⁻¹ for the first, 73000 M⁻¹ s⁻¹ for the second.

Target: T1, 32-mer MUC1 peptide
Assay: ELISA, IgG on coated 32-mer MUC1 peptide
Protocol: as §1

B1 and B2 are the same in “fold stronger binding than R764-G2 and R764-hHMFG1” value: 10 times for the first, 10 times for the second.

Target: T2, MUC1 peptide (15 aa+cystein, …)
Assay: SPR, scFv 2-200 nM over immobilized MUC1 peptide, Chip 1 (47 RU)

Going from B3 to B4, the Ka rises from 7.5e+08 M⁻¹ to 1.8e+09 M⁻¹ (2.4-fold).

Going from B5 to B6, the Ka falls from 1e+09 M⁻¹ to 4.8e+08 M⁻¹ (2.1-fold).

B7 and B8 are within 1.5-fold of each other in Ka: 2.3e+08 M⁻¹ for the first, 2.8e+08 M⁻¹ for the second.

First: B3
Second: B4
The Kd of the first is 2.3-fold higher: 1.3 nM for the first, 0.57 nM for the second. The second binds more tightly here.

Going from B5 to B6, the Kd rises from 1 nM to 2.1 nM (2.1-fold). The first binds more tightly here.

B7 and B8 are within 1.5-fold of each other in Kd: 4.4 nM for the first, 3.7 nM for the second.

Going from B3 to B4, the koff falls from 4.6e-05 s⁻¹ to 2.1e-05 s⁻¹ (2.2-fold).

B5 and B6 are within 1.5-fold of each other in koff: 7.2e-05 s⁻¹ for the first, 0.0001 s⁻¹ for the second.

Going from B7 to B8, the koff falls from 0.00022 s⁻¹ to 0.00011 s⁻¹ (2-fold).

B3 and B4 are within 1.5-fold of each other in kon: 35000 M⁻¹ s⁻¹ for the first, 38000 M⁻¹ s⁻¹ for the second.

B5 and B6 are within 1.5-fold of each other in kon: 72000 M⁻¹ s⁻¹ for the first, 49000 M⁻¹ s⁻¹ for the second.

Compared with B7, B8 is 1.7-fold lower in kon: 50000 M⁻¹ s⁻¹ for the first, 29000 M⁻¹ s⁻¹ for the second.

Target: T2, MUC1 peptide (15 aa+cystein, …)
Assay: SPR, scFv over immobilized MUC1 peptide, Chip 2 (14 RU); Chip 2 (14 RU MUC1 peptide)

B4 was tested, and the Kd was 0.65 nM.
